Experimental data from patent US20230226096A1 (Orna Therapeutics, Inc., priority 2020, published 2023).

System: HEK293 cells
Assay type: cell-based, human
Conditions: luminescence from secreted Gluc in supernatant 24 hours after transfection of HEK293 cells; circular RNA encoding Gluc with the named IRES (UTR truncated to 675 nt)

B1: Cosavirus B1 (nucleic acid, listed as Cosavirus sp.)
DNA: CGTGCTTTACACGGTTTTTGAACCCCACACCGGCTGTTTGGCGCTTGCAGGACAGCAGGTTTATTTTCTTTTAACTCTCTCTTTCTAGCCACACACGATCTATGTGTGTGGGCGGAGTGATACTCCCGTTCCTTCTTGGACAGGCGGCCTCCACGCCCTTTGTGGATCTTAAGGCTACCAAGTCACTGGTGTTGGAAAGTGAAGAGAAAGGAGTTCCTTGGGAACTACATGTGGCATTGACAGAGGTTGTAGCGATGCTGTGTGTGTGTGCGGATTACCCCCGTGGCGACACGGACCCCACAGGCCAAAAGCCCTGTCCGAAAGGACCCACACAGTGGAGCAACCCCAGCTCCCCTCTTCAATGTTTTGTGTTAGCAACCTTGGTATTATTTTCTCTCAAGCTTCCAATACACCGGGCCCCAAAGATGTCCTGAAGGTACCCCGTGTATCTGAGGATGAGCACCATCAACTACCCGGACTTGTTCTTTCGAGAACAGACGCATGTGGTAACCCAGCCCCGATCCTAAGGGGTCGGGGCTTTTGCTCACTCAGCACAGGATCTGATCAGGAGACCTCCCCCCCCTGCTTTACAGGGGGCGGGGGTTTAAAAATTGCCCAAGGCCTGGCAAATAACCTAGGGGACTAGGTTTTCCTTTTTATTTTAAAGTTGTCAAT
Expression: 1.91E+06

B2: REV A (nucleic acid, listed as Reticuloendotheliosis virus)
DNA: GGGGTCGCCGTCCTACACATTGTTGTGACGTGCGGCCCAGATTCGAATCTGTAATAAAAGCTTTTTCTTCTATATCCTCAGATTGGCAGTGAGAGGAGATTTTGTTCGTGGTGTTGGCTGGCCTACTGGGTGGGGTAGGGATCCGGACTGAATCCGTAGTATTTCGGTACAACATTTGGGGGCTCGTCCGGGATTCCTCCCCATCGGCAGAGGTGCCTACTGTTTCTTCGAACTCCGGCGCCGGTAAGTAAGTACTTGATTTTGGTACCTCGCGAGGGTTTGGGAGGATCGGAGTGGCGGGACGCTGCCGGGAAGCTCCACCTCCGCTCAGCAGGGGACGCCCTGGTCTGAGCTCTGTGGTATCTGATTGTTGTTGAACCGTCTCTAAGACGGTGATACTATAAGTCGTGGTTTGTGTGTTTGTTTGTTACCTTGTGTTTGTTCGTCACTTGTCGACAGCGCCCTGCGAATTGGTGTACCCACACCGCGCGGCTTGCGAATAATACTTTGGAGAGTCTTTTGCCTCCAGTGTCTTCCGTTTGTACTCGTCCTCCTCTCCCTCTCCGGCCGGGATGGG
Expression: 9.44E+04

B3: Cosavirus A SH1 (nucleic acid)
DNA: CCGTGCTTTACACGGTTTTTGAACCCCACACCGGCTGTTTGGCGCTTGCAGGACAGCAGGTTTATTTTCTTATGCTCTTTATTTCTAGCCAACAGGGTTCTATCCTGTTGGGCGGAGTGATACTCCCGTTCCTTCTTGGACAGATTGCCTCCACGATCTTTGTGGATCTCAAGGTGATCAAGTCACTGGTAAATAGAGCGAAGGTTGAGGAAACCTGAGGAATTTCCATGTGGTTTTGCCAGGAGTTGTAGCGATGCTGTGTGTGTGTGCGGATTTCCCCTCATGGCAACATGAGCCTCACAGGCCAAAAGCCCTGTCCGAAAGGACCCACACAGTGGAGCAATCCCAGCTCCCTCCTACAAAGCTTTGTGAGAATGAACTCACGTTTATTCTTCTTTATTCTCTGTTTACATCAGGCCCCAAAGATGTCCTGAAGGTACCTTGTGTATCTGGGCATGAGCACCATCAACTACCCGGACTTGCATTTCGGTGCAGACACATGTGGTTACCCAGCCCCTCTGCTTTGGCAGAGGGGCTTTTGCTCGCTCAGCACGAGATCTGATCAGGAGCCCTTCCCAGTGTGCTTTACACCTGGCGGGGGGTTAAAAATTGCCCAAGGCCTGGCAAAATAACCTAGGGGACTAGGTTTTCCTTTTATTAACAATGTCTGTCATT
modifications: Cosavirus A
Expression: 2.16E+06

B4: Malagasivirus B (nucleic acid)
DNA: CTTTATTTTCTTATGTAACTCTTCTTTTTAAGTTTTATTTTGCCTACTTGTGAGCTTATGCGGGACCACTGTCTTAGACAACCCCACATTTGTCATGAGTAAGTACACGCAACCATTACGATTACTTTTTAACCGTCTGACCTTTTGATAACAACTGAAGTTAGGCGTGAAACATGCATTTATACCAAAGTAGCCCCGCATTTCCCCACTACGGTGGGGGGGCTACCCTACTGGCTTTGGAACTGTAGCCATTATGTGTTGCCTGGCTTTCAGGATCTCACAACACAACAGTTCTCTCACAATGGAATATGGGTGAGATTGCAGTGACATGAACAAGTATCTAGTAGTACATAGACTCAAGCCTAGTTGCCTGCGGAACAACATGTGGTAACACATGCCCCAGGGTCCAAAAGACAAGGGTTAACAGCCCCTTCTAGGTGTCTGTGTGTGAAGAATACTTTAGTAGTGTTGTTATGATCTCACCTGTTAGTACAGAATGAGTATGGCTTGGTGAAGGATGTCCTACAGGTACCCATTATATGGATCTGAGTAGGAGACCACTAGTGGTGGCTTTACCGCCAGGTGAGTGGTTTAAAAAGCGTCTAGCCAAGCCAACAGCACTAGGGATAGTGCTTTCTATATTTTATATTTTCAGTGTAT
modifications: Malagasivirus B
Expression: 5.05E+06

B5: Mosavirus A2 SZAL6 (nucleic acid, listed as Mosavirus sp.)
DNA: CCCCCCCCTCAAATTGCAACGATATAGCTAATGGCGAGATTGAGATGCTATATCACCTCTTCTAAGTTATAGACCTCATCTGATTGATAAGGACGTAATTTGGTCGAAACCGCTTGGAATAAGACCGATGCGCGTAGTCATGATGATGATGTAAGATCTAGGAACTTATCCAATCTGCTTATGTCTATGTAAGTAGAGGGGCAGGCCTCATTGCCCTAATTCTTTCTACCGAGTATCTGCTAGGGTTTCTAGCGGCTTGAATACTTGGATTGAGGGATACAAGATACTACTGATCGATTGTCGATTGGGAAACTTGTAGATACTTCAAAGCTACCAGTAGCGTGGACTCACAGCCAGCGGACTACCCCTCATGGTAACATGAGCCTCTGGGCCCACAAGGCACGTCGCAAGACCTGTGAGACGGCAACCCCAGCCTAGCTTTGTTGAGGAAACAAGCGATAACATGACATGAGAGACCGGAAGGATTCTTGTATTGTGAGCCGAAGGATGGCCTCTAGGTACCTCATTTTATGAGATCTGAGGAGGTGCTCTTGAGTTGGTGCTTTACACTGACAACACAGAGTTAAAAAGCGTCTAAGCTCACCCGGAAATTGGGAAATTTCCGTTATTTCCATTTTGTTTGCAAAGTCGTTC
Expression: 8.27E+06

B6: SVV (nucleic acid)
DNA: CTGGGCCCTCATGCCCAGTCCTTCCTTTCCCCTTCCGGGGGGTAAACCGGCTGTGTTTGCTAGAGGCACAGAGGAGCAACATCCAACCTGCTTTTGTGGGGAACGGTGCGGCTCCAATTCCTGCGTCGCCAAAGGTGTTAGCGCACCCAAACGGCGCATCTACCAATGCTATTGGTGTGGTCTGCGAGTTCTAGCCTACTCGTTTCTCCCCTATCCACTCACTCACGCACAAAAAGTGTGCTGTAATTACAAGATTTAGCCCTCGCACGAGATGTGCGATAACCGCAAGATTGACTCAAGCGCGGAAAGCGCTGTAACCACATGCTGTTAGTCCCTTCATGGCTGCGAGATGGCTATCCACCTCGGATCACTGAACTGGAGCTCGACCCTCCTTAGTAAGGGAACCGAGAGGCCTTCTTGCAACAAGCTCCGACACAGAGTCCACGTGATTGCTACCACCATGAGTACATGGTTCTCCCCTCTCGACCCAGGACTTCTTTTTGAATATCCACGGCTCGATCCAGAGGGTGGGGCATGATCCCCCTAGCATAGCGAGCTACAGCGGGAACTGTAGCTAGGCCTTAGCGTGCCTTGGATACTGCCTGATAGGGCGACGGCCTAGTCGTGTCGGTTCTATAGGTAGCACATACAAAT
Expression: 1.06E+06

B7: PTV A (nucleic acid)
DNA: ACTAGTCCTTGGACTTTTGTTGTGTTTAAACACAGAAATTTAATTACCTGGCCATGAATTCATTGGATTAACCCTTCTGAAAGACTTGCTCTGGCGCGAGCTAAAGCGCAATTGTCACCAGGTATTGCACCAGTGGTGGCGACAGGGTACAGAAGAGCAAGTACTCCTGACCGGGCAATGGGACTGCATTGCATATCCCTAGGCACCTATTGAGATTTCTCTGGGGCCCACCGGCGTGGAGTTCCTGTATGGGAATGCAGGACTGGACTTGTGCTGCCTGACAGGGTCGCGGCTGGCCGTCTGTACTTTGTATAGTCAGTTGAAACTCACC
modifications: Teschovirus A
Expression: 7.29E+05

B8: PTV B (nucleic acid)
DNA: CTTCCTTTTAATTCGTAACTGATAAGTGATAGTCCTTGGAAGCTAGGTATTTGTTACGCTAGTTTTGGATTATCTTGTGCCCAACATTTGTTTTCGAACATATGTTGTGTTTAAACACAGAAATCTAGTTTCTTTGGTTATGAGTTTAATGGAATATCCTTTTGAAAGACTTGCCTTGGCGCGGGCTAGAGCGCAATTGTCACCAGGTATTGCACCAATGGTGGCGACAGGGTACAGAAGAGCAAGTACTCCTGACTGGGTAATGGGACTGCATTGCATATCCCTAGGCATCTATTGAGATTTCTCTGGAGCCCACCAGCATGGAGTTCCTGTATGGGAATGCAGGACTGGACTTGTGCTGCCTGACAGGGTCGCGGCTGGCCGTCTGTACTTTGTATAGTCAGTTGAAACTCATT
modifications: Teschovirus B
Expression: 6.02E+06

B9: Tottorivirus (nucleic acid, listed as Tottorivirus sp.)
DNA: CCCCTTTACGTAACTGCAACTTAAAGAGTACCCTACTGCATTGGATGTGTGGTAAACTTTTACGCACACATTTGTAGTAGTGTTAGTTATGTTCTACCTAATGAGTATGCATGCACCCGTCGAAACACGCTTGTGATAAGATAGGTGAGTCCATGTGACTAATCTCATTAAGATAAATAAGCACCCTACAACGCACGGCACGCTCGTGTCTTCCGTGCGGGGCCGGGACAACAGCGGCCTAAATCTTCTAGGTGACCACCATGCTTTTGGGACTATGGCACCACTGTGGACGTGAGTACCTGGCAGTAAGTCTGTGAAAAGATGGAAGGTGTCCCAAGCTATGGGGCGTATGCATATAGCCTGCGGAACAAACAACGGCGACGTTGTCCCCAGGGCCCAAAAGGCACGTGGATAAGATCCACCTATATGTTTACCCCATAGTGTAAGTCACTGGAAGTCCTAGTAATGGATGTCTGGAGTAAGGCTCACGGGGTAGGGCGAAGGATGCCCAGAAGGTACCCGTAGGTAACCTTAAGAGACTATGGATCTGATCTGGGGACCGGATGGCGCCATCACCATGACGTGGAGGCCGGTTTAAAAAACGTCTAAGCCCGACCAACAACCTAGGGGACTAGGTTTTCCTTTTTTATTCATGTATGACGTT
Expression: 2.76E+07
